Measured values published in the Human Domainome abundance scans (Beltran et al. 2025).
± gives the uncertainty stated by the source.

B1: REST corepressor 3, residues 87 to 134; numbered along this chain, Q9P2K3 (parent)
chain: DEWTVEDKVLFEQAFSFHGKSFHRIQQMLPDKTIASLVKYYYSWKKTR

Variants of: B1
Assay: abundance fitness (aPCA) (normalised: wild type 0, dead -1); higher = more abundant; growth selection in yeast, the domain comes from the species named
Settings: Homo sapiens

Variant	abundance fitness
DEWTVEDKVLFEQAFSFHGKCFHRIQQMLPDKTIASLVKYYYSWKKTR [S21C]	0.164 ± 0.15
DEWTVEDKVLFEQAFSFHGKAFHRIQQMLPDKTIASLVKYYYSWKKTR [S21A]	0.221 ± 0.12
DEWTVEDKVLFEQAFSFHGKEFHRIQQMLPDKTIASLVKYYYSWKKTR [S21E]	0.261 ± 0.13
DEWTVEDKVLFEQAFSFHGKDFHRIQQMLPDKTIASLVKYYYSWKKTR [S21D]	1.11 ± 0.23
DEWTVEDKVLFEQAFSFHGPSFHRIQQMLPDKTIASLVKYYYSWKKTR [K20P]	-0.704 ± 0.47
DEWTVEDKVLFEQAFSFHGNSFHRIQQMLPDKTIASLVKYYYSWKKTR [K20N]	-0.306 ± 0.27
DEWTVEDKVLFEQAFSFHGASFHRIQQMLPDKTIASLVKYYYSWKKTR [K20A]	-0.343 ± 0.28
DEWTVEDKVLFEQAFSFHGWSFHRIQQMLPDKTIASLVKYYYSWKKTR [K20W]	-0.551 ± 0.33
DEWTVEDKVLFEQAFSFHGVSFHRIQQMLPDKTIASLVKYYYSWKKTR [K20V]	-0.737 ± 0.36
DEWTVEDKVLFEQAFSFHGLSFHRIQQMLPDKTIASLVKYYYSWKKTR [K20L]	-0.665 ± 0.24
DEWTVEDKVLFEQAFSFHGTSFHRIQQMLPDKTIASLVKYYYSWKKTR [K20T]	-0.399 ± 0.37
DEWTVEDKVLFEQAFSFHGGSFHRIQQMLPDKTIASLVKYYYSWKKTR [K20G]	-0.278 ± 0.14
DEWTVEDKVLFEQAFSFHGSSFHRIQQMLPDKTIASLVKYYYSWKKTR [K20S]	-0.393 ± 0.17
DEWTVEDKVLFEQAFSFHGRSFHRIQQMLPDKTIASLVKYYYSWKKTR [K20R]	-0.544 ± 0.19
DEWTVEDKVLFEQAFSFHGMSFHRIQQMLPDKTIASLVKYYYSWKKTR [K20M]	0.033 ± 0.22
DEWTVEDKVLFEQAFSFHGCSFHRIQQMLPDKTIASLVKYYYSWKKTR [K20C]	-0.337 ± 0.34
DEWTVEDKVLFEQAFSFHGESFHRIQQMLPDKTIASLVKYYYSWKKTR [K20E]	-0.353 ± 0.33
DEWTVEDKVLFEQAFSRHGKSFHRIQQMLPDKTIASLVKYYYSWKKTR [F17R]	0.137 ± 0.083
DEWTVEDKVLFEQAFSEHGKSFHRIQQMLPDKTIASLVKYYYSWKKTR [F17E]	0.376 ± 0.13
DEWTVEDKVLFEQAFSSHGKSFHRIQQMLPDKTIASLVKYYYSWKKTR [F17S]	0.262 ± 0.12
DEWTVEDKVLFEQAFSCHGKSFHRIQQMLPDKTIASLVKYYYSWKKTR [F17C]	-0.853 ± 0.45
DEWTVEDKVLFEQAFSYHGKSFHRIQQMLPDKTIASLVKYYYSWKKTR [F17Y]	-0.592 ± 0.37
DEWTVEDKVLFEQAFSPHGKSFHRIQQMLPDKTIASLVKYYYSWKKTR [F17P]	-0.537 ± 0.46
DEWTVEDKVLFEQAFSQHGKSFHRIQQMLPDKTIASLVKYYYSWKKTR [F17Q]	-0.654 ± 0.33
DEWTVEDKVLFEQAFSKHGKSFHRIQQMLPDKTIASLVKYYYSWKKTR [F17K]	0.207 ± 0.14
DEWTVEDKVLFEQAFSAHGKSFHRIQQMLPDKTIASLVKYYYSWKKTR [F17A]	-0.307 ± 0.17
DEWTVEDKVLFEQAFSWHGKSFHRIQQMLPDKTIASLVKYYYSWKKTR [F17W]	-0.61 ± 0.28

Variant	abundance fitness
DEWTVEDKVLFEQAFSGHGKSFHRIQQMLPDKTIASLVKYYYSWKKTR [F17G]	-0.793 ± 0.25
DEWTVEDKVLFEQAFSIHGKSFHRIQQMLPDKTIASLVKYYYSWKKTR [F17I]	-0.055 ± 0.23
DEWTVEDKVLFEQAFSNHGKSFHRIQQMLPDKTIASLVKYYYSWKKTR [F17N]	-0.208 ± 0.43
DEWTVEDKVLFEQAFSLHGKSFHRIQQMLPDKTIASLVKYYYSWKKTR [F17L]	-0.206 ± 0.12
DEWTVEDKVLFEQAFSHHGKSFHRIQQMLPDKTIASLVKYYYSWKKTR [F17H]	-0.207 ± 0.47
DEWTVEDKVLFEQAFSMHGKSFHRIQQMLPDKTIASLVKYYYSWKKTR [F17M]	-0.553 ± 0.28
DEWTVEDKVLFEQAFSTHGKSFHRIQQMLPDKTIASLVKYYYSWKKTR [F17T]	0.36 ± 0.11
DEWTVEDKVLFEQAFSDHGKSFHRIQQMLPDKTIASLVKYYYSWKKTR [F17D]	0.259 ± 0.29
DEWTVEDKVLFEQAFSFGGKSFHRIQQMLPDKTIASLVKYYYSWKKTR [H18G]	-0.764 ± 0.25
DEWTVEDKVLFEQAFSFQGKSFHRIQQMLPDKTIASLVKYYYSWKKTR [H18Q]	-0.895 ± 0.45
DEWTVEDKVLFEQAFSFLGKSFHRIQQMLPDKTIASLVKYYYSWKKTR [H18L]	-0.731 ± 0.27
DEWTVEDKVLFEQAFSFSGKSFHRIQQMLPDKTIASLVKYYYSWKKTR [H18S]	-0.706 ± 0.35
DEWTVEDKVLFEQAFSFIGKSFHRIQQMLPDKTIASLVKYYYSWKKTR [H18I]	0.283 ± 0.34
DEWTVEDKVLFEQAFSFYGKSFHRIQQMLPDKTIASLVKYYYSWKKTR [H18Y]	-0.05 ± 0.19
DEWTVEDKVLFEQAFSFTGKSFHRIQQMLPDKTIASLVKYYYSWKKTR [H18T]	-0.39 ± 0.32
DEWTVEDKVLFEQAFSFVGKSFHRIQQMLPDKTIASLVKYYYSWKKTR [H18V]	-0.974 ± 0.44
DEWTVEDKVLFEQAFSFWGKSFHRIQQMLPDKTIASLVKYYYSWKKTR [H18W]	-0.894 ± 0.47
DEWTVEDKVLFEQAFSFNGKSFHRIQQMLPDKTIASLVKYYYSWKKTR [H18N]	-0.785 ± 0.31
DEWTVEDKVLFEQAFYFHGKSFHRIQQMLPDKTIASLVKYYYSWKKTR [S16Y]	-0.391 ± 0.38
DEWTVEDKVLFEQAFTFHGKSFHRIQQMLPDKTIASLVKYYYSWKKTR [S16T]	-0.427 ± 0.2
DEWTVEDKVLFEQAFWFHGKSFHRIQQMLPDKTIASLVKYYYSWKKTR [S16W]	-0.568 ± 0.25
DEWTVEDKVLFEQAFRFHGKSFHRIQQMLPDKTIASLVKYYYSWKKTR [S16R]	-0.014 ± 0.1
DEWTVEDKVLFEQAFQFHGKSFHRIQQMLPDKTIASLVKYYYSWKKTR [S16Q]	-0.084 ± 0.36
DEWTVEDKVLFEQAFVFHGKSFHRIQQMLPDKTIASLVKYYYSWKKTR [S16V]	-0.393 ± 0.14
DEWTVEDKVLFEQAFSFHVKSFHRIQQMLPDKTIASLVKYYYSWKKTR [G19V]	-0.805 ± 0.43
DEWTVEDKVLFEQAFSFHDKSFHRIQQMLPDKTIASLVKYYYSWKKTR [G19D]	-0.487 ± 0.45
DEWTVEDKVLFEQAFSFHSKSFHRIQQMLPDKTIASLVKYYYSWKKTR [G19S]	-0.487 ± 0.3
